This test has as its target N2β1α1C1, purified recombinant (the MxDnaK1 chimera with the MxDnaK2 NBD) (Myxococcus xanthus DK1622). Nature of the test: SDS-PAGE of the purified protein.

As to “N2β1α1C1, purified recombinant (the MxDnaK1 chimera with the MxDnaK2 NBD)”, the stoichiometry N (as a rule, the number of molecules, sites or subunits per partner or assembly) was determined as 2.

The values above are taken from doi:10.1101/2023.06.19.545549.
